The values that follow come from patent publication US20260041744.

This data set has as its target cellular receptors (CIMPR) on normal and Pompe patient fibroblasts (UniProt P11717).

Chain of cellular receptors (CIMPR) on normal and Pompe patient fibroblasts (P11717 41-2491): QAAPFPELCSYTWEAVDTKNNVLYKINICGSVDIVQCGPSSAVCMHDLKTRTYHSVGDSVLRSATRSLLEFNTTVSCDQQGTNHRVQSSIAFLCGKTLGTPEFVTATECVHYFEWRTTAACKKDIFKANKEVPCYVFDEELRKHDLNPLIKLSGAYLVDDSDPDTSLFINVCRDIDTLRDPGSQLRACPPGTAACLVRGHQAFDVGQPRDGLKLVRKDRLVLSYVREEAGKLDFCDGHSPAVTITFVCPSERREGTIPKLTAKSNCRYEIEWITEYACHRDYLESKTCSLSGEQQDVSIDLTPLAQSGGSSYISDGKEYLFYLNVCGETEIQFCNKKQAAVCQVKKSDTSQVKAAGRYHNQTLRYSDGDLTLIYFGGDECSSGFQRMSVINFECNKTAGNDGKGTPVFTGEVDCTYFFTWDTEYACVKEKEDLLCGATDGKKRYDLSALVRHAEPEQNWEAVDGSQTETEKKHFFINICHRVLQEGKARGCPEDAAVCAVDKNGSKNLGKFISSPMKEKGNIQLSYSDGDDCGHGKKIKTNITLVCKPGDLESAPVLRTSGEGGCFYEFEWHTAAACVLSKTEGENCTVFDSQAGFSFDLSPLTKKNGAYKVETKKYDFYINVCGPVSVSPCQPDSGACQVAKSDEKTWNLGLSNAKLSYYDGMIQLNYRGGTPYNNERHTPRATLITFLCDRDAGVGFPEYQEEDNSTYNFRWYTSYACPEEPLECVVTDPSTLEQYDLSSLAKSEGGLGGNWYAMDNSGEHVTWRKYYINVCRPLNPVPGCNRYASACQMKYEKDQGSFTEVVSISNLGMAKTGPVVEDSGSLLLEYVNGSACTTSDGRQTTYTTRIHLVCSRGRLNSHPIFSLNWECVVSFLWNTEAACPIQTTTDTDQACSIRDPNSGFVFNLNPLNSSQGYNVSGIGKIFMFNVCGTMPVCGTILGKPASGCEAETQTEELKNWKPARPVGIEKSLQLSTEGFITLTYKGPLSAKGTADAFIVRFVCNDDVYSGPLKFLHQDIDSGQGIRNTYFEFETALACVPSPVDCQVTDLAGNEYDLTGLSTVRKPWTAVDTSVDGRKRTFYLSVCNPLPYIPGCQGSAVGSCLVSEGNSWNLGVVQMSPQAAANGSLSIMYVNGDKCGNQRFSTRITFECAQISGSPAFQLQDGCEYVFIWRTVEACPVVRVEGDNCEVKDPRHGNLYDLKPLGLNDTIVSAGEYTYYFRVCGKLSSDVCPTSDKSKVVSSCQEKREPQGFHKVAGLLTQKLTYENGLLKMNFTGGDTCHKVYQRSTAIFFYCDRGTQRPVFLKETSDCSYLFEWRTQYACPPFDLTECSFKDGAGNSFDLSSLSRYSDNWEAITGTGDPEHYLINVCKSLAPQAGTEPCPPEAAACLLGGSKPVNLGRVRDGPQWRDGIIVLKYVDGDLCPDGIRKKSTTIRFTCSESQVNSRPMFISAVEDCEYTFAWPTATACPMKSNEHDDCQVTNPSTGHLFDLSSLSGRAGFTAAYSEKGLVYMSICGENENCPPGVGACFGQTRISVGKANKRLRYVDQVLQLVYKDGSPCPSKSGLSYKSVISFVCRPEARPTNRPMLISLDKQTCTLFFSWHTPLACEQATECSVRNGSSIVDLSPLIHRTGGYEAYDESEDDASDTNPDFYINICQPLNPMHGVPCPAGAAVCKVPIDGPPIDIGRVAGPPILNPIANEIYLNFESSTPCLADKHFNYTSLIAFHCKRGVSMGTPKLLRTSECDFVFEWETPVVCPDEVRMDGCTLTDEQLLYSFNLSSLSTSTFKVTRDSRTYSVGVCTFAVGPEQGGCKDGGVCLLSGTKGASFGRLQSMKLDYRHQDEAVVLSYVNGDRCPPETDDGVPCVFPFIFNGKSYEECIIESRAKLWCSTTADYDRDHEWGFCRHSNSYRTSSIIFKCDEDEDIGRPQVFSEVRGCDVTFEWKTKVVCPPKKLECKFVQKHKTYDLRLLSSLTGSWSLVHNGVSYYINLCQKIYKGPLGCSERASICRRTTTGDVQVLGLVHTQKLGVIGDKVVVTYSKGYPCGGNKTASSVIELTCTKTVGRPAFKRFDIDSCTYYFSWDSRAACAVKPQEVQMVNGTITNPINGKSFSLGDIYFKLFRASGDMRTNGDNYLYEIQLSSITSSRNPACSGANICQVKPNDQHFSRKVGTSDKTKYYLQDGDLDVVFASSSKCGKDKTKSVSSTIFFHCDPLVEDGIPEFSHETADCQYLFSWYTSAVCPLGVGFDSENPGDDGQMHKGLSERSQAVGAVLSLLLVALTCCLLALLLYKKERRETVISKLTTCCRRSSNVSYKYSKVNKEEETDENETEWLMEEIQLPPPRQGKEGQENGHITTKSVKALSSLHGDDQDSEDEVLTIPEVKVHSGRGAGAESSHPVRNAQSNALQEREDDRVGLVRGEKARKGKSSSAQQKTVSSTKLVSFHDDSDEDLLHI

Turning to “ATB200 rhGAA (recombinant human acid α-glucosidase produced from CHO cell line GA-ATB200)”, the “stated: internalized; internalized GAA activity (nmol/mg protein/hr) in skeletal muscle myoblasts against rhGAA added (nM)” value is “ATB200 curve rises steeply from 0, to about 400 near 15 nM and about 540 near 30 nM, then flattens: about 630 near 60 nM, about 700 at 125 nM, about 740 at 250 nM”; the “stated: internalized; internalized GAA activity (pmol 4-MU/mg/h), 4MU-α-Glc assay, Pompe patient fibroblasts, 20 nM rhGAA” value was “bar 'Cipaglucosidase alfa + Mock' is the highest, a little above the 900 tick; untreated cells are at 0”; the “stated: taken up; internalized GAA activity in CRL 2076 (normal fibroblasts)” value was “curve marked ATB200 rises steeply from about 0 to about 26 at about 10 nM and about 33 nmol/mg protein/hr at about 27 nM, then plateau of about 34-35 up to about 240 nM; with +M6P at about 240 nM (triangle) only about 5”; the “stated: taken up; internalized GAA activity in PM25 (Pompe fibroblasts)” value is “curve marked ATB200 rises steeply from about 0 to about 30 at about 10 nM and about 36 at about 27 nM, then plateau of about 40 nmol/mg protein/hr at about 80 nM (point of about 45 at about 240 nM); with +M6P at about 245 nM (triangle) about 1”.

Regarding “LUMIZYME® (alglucosidase alfa, conventional rhGAA product)”, the “stated: taken up; internalized GAA activity in CRL 2076 (normal fibroblasts)” value is “curve marked Alglucosidase Alfa rises slowly: about 8 at about 10 nM, about 16 at about 27 nM, about 23 at about 80 nM, about 35 nmol/mg protein/hr at about 240 nM, no clear plateau; with +M6P at about 240 nM (square) about 1” and the “stated: taken up; internalized GAA activity in PM25 (Pompe fibroblasts)” value is on record as “curve marked Alglucosidase Alfa rises slowly: about 7 at about 10 nM, about 13 at about 27 nM, about 27 at about 80 nM, about 37 nmol/mg protein/hr at about 240 nM, still rising; with +M6P at about 245 nM (square) about 3”.

Regarding “PAP-treated cipaglucosidase alfa (dephosphorylated cipaglucosidase alfa)”, the “stated: not internalized; internalized GAA activity (pmol 4-MU/mg/h), 4MU-α-Glc assay, Pompe patient fibroblasts, 20 nM rhGAA” value was “bar 'Cipaglucosidase alfa + PAP' is at about 0, at the level of 'Untreated Cells' and 'PAP Alone'”.

Regarding “alglucosidase alfa (mock-treated control of Example 16)”, the “stated: internalized; internalized GAA activity (nmol/mg protein/hr) in skeletal muscle myoblasts against rhGAA added (nM)” value was “Alglucosidase alfa curve rises slowly: about 150 near 30 nM, about 250 near 60 nM, about 390 at 125 nM, about 475 at 250 nM. It is still rising with no plateau and lies below ATB200 at every concentration”; the “stated: internalized; internalized GAA activity (pmol 4-MU/mg/h), 4MU-α-Glc assay, Pompe patient fibroblasts, 20 nM rhGAA” value was “bar 'Alglucosidase alfa + Mock' lies a little below the 300 tick, clearly above untreated cells and well below the cipaglucosidase alfa + Mock bar”.
